The source of these data is US20150218244A1 (Hoffmann-La Roche, published 2015).

As a reminder, the Kd is a measure of binding affinity in units of concentration. A higher Kd goes with lower affinity. One may read the koff as a measure of how fast the partners let go of each other. Read a high koff as a short-lived complex. As usually defined, the kon is the rate constant with which the complex forms. High values mean fast association, low ones slow association.

Residue numbers refer to the chain shown, from its start. Numbers in names are those of the source.

For assay [1], the target named is T1, human IL-10R1 fused to an IgG Fc region, biotinylated (human, biotinylated (site not stated)).
T1 construct: also called hu IL-10R1; IL-10R1-Fc
T1 sequence (chain, as listed by the source limits assumed): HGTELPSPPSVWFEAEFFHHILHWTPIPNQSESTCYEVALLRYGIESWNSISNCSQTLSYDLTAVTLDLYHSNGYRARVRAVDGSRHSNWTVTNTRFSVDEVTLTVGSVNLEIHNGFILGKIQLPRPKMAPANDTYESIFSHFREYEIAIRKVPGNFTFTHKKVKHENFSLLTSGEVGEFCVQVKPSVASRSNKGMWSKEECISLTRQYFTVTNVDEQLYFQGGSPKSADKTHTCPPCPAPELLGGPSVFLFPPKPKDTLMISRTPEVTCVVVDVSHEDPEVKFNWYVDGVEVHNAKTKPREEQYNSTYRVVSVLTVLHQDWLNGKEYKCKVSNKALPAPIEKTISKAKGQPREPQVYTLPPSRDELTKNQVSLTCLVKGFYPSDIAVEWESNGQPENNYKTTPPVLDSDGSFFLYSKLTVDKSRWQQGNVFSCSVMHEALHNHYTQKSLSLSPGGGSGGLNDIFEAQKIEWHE
As to the kind of experiment: SPR (ProteOn XPR36, 25 C), about 770 RU biotinylated IL-10R1-Fc on NLC chip, his-tagged cytokine as analyte. Here is the method:
(§1) The SPR assay set-up is depicted in FIG. 15. About 770 RU of the biotinylated human IL-10R1 fused to an IgG Fc region (see SEQ ID NO: 87) were captured on the neutravidin-derivatized chip matrix of an NLC chip along vertical channels at a concentration of 30 μg/ml and a flow rate of 30 μl/min for a contact time or 240 s. Binding to huIL10R1 was measured at 5 different analyte concentrations (50, 10, 2, 0.4, 0.08 nM) by injections in horizontal orientation at 50 μl/min, recording the association rate for 180 s, the dissociation rate for 600 s. Running buffer (PBST) was injected along the sixth channel to provide an “in-line” blank for referencing. Association rates (kₒₙ) and dissociation rates (koff) were calculated using a simple 1:1 Langmuir binding model (ProteOn Manager software version 2.1) by simultaneously fitting the association and dissociation sensorgrams. The equilibrium dissociation constant (KD) was calculated as the ratio koff/kₒₙ. As human IL-10R1 could not be regenerated without a loss of activity, the subsequent steps of ligand capture and analyte injection were performed channel per channel using a freshly immobilized sensorchip surface for every interaction.
A decreased affinity to the IL-10R1 may represent a distinct advantage when targeting IL-10 to inflamed tissues through fusion with an antibody.

Assay [2] deals with T1, human IL-10R1 fused to an IgG Fc …. As to the kind of experiment: SPR, against IL-10 wild type. Here is the method: as §1
A decreased affinity to the IL-10R1 may represent a distinct advantage when targeting IL-10 to inflamed tissues through fusion with an antibody. […]

B1: IL-10 (I87A)-his mutant cytokine (ligand)
chain: SPGQGTQSENSCTHFPGNLPNMLRDLRDAFSRVKTFFQMKDQLDNLLLKESLLEDFKGYLGCQALSEMIQFYLEEVMPQAENQDPDAKAHVNSLGENLKTLRLRLRRCHRFLPCENKSKAVEQVKNAFNKLQEKGIYKAMSEFDIFINYIEAYMTMKIRNVDHHHHHH
notes: The entry already carries I87A; Purified as the dimeric cytokine; also called hu IL-10 (I87A)
In assay [1], B1 displayed a Kd of 0.476 nM, a koff of 0.000219 s⁻¹ and a kon of 461000 M⁻¹ s⁻¹. Besides, the “fold reduction of affinity compared to IL-10 wild type” value in assay [2] amounted to 10 fold.

B2: IL-10 (R24A)-his mutant cytokine (ligand)
chain: B1 chain with R24A, A87I
notes: The entry already carries R24A; Purified as the dimeric cytokine; also called hu IL-10 (R24A)
On to B2, for which, in assay [1], the affinity, expressed as Kd, was 0.0807 nM; the koff stood at 0.000184 s⁻¹; the kon was 2.28e+06 M⁻¹ s⁻¹. The “fold reduction of affinity compared to IL-10 wild type” value in assay [2] was found to be 2 fold.
